Laboratory results published in the supplement of paper PMC6755084.

B1: minF1; a variant is named by its letters at N, in order (parent)
chain: GAGACCGCAACTGAAAAGTTGTTNNNNAANNNNGGNTNNATTTCTGCACGTAGAAGCAAAAGGC

Variants of: B1
Assay: fraction ligated after 30 min (ligated reads / total reads); higher = more ligase activity
Settings: with F1*subA RNA substrate (template-directed ligation), 42 °C
Method in brief: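 Fraction ligated for every variant was calculated as the share of total reads that came from ligated RNA. Minimized ligase ribozyme variants were made from oligo-pool templates by PCR amplification, T7 transcription and gel purification. After gel separation of ligated and unligated RNAs, reverse transcription with barcoded primers and MiSeq sequencing followed. Only core bases at quality ≥30 passed filtering.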

Variant | fraction ligated
ATCAAATGGTT A28G G34A T37G | 0.0014
ATCGTGGATGA | 0.00177
ATCAAATGGTT A28G G35T T37G A40G | 0.00187
ATCGAGTGTGA | 0.00242
ATCAATGAGTA G34T | 0.0033
ATCAATGGGTG A28G | 0.00414
ATCAATGGGTT A28G G34A T37G | 0.00259
ATCAAAGGGTA A28G | 0.00291
ATAGGGATTGA | 0.00436
ATCGAGATTGA | 0.00372
ATCAGATGTGA A29T | 0.00586
ATCAGATGTGA A29G | 0.0024
ATCAGGAGTGA | 0.00543
ATCAAATGGTT A28G G35T T37G | 0.00103
ATCAATGGTGA A28G | 0.00319
ATCAATGGGTT A28G G34A G35T T37G | 0.00268
ATCAATGAGTG G34T | 0.00509
ATCGATGAGTA | 0.00221
ATCGATGAGTG | 0.00474
ATCAAAGTTGA A28G | 0.0038
ATCAGGATGTG A28G | 0.0124
ATCGGGATGTG | 0.0285
ATCGGGATGTA | 0.00428
ATAGTGATTGA | 0.00291

Variant | fraction ligated
ATCATGATGTA | 0.00345
ATCATGATGTG | 0.0143
ATAGTGGTGTG | 0.00637
ATAGTGGTGTA | 0.0012
ATCGGATGTGA A28T A29G | 0.012
ATGAGGATTGA | 0.00566
ATCAAGGAGTT G34T T37G A40G | 0.00198
ATCAATGGGTT G34A T37G A40G | 0.00153
ATAGTGAGTGA | 0.00282
ATCAAGATGTA A28G | 0.00207
ATCATGGAGTG A28G G34T | 0.0152
ATGAGGAGTGA | 0.00532
ATAGTGGGTGA | 0.00334
ATAGATGTGTA | 0.00402
ATAGATGTGTG | 0.00629
ATCAAATGGTT A28G G34A T37G A40G | 0.000551
ATCATGGAGTA A28G G34T | 0.00586
ATCGATAGTGA | 0.00296
ATCAAATGGTT A28G T37G A40G | 0.0011
ATCAAAGTGTG A28G | 0.00272
ATCGATATTGA | 0.00165
ATCAAAGGGTT A28G G34A T37G | 0.00203
ATAGGGATTGA A29T | 0.0025
ATCAATGGGTG A28G G34T | 0.00456

Variant | fraction ligated
ATCAATGGGTG A28G G34A | 0.00717
ATCAAGGTGTA | 0.00438
ATCAAGGTGTG | 0.00687
ATCATGATGTA A28G | 0.00257
ATCAATGGTGA | 0.0039
ATCGTGGAGTT G34T T37G A40G | 0.00133
ATCGATGGGTG G34T | 0.00494
ATCGATGGGTG G34A | 0.00444
ATCAATATTGA | 0.00211
ATCATGGAGTG G34T | 0.0119
ATCAAATTTGA A28G | 0.00721
ATCAGATGTGA | 0.00333
ATCATGGAGTG A28G | 0.00442
ATCAAATTGTA A28G | 0.00076
ATCATGGAGTT G34T T37G | 0.00293
ATCAAGGTGTG A28G | 0.0012
ATCATGGAGTT A28G G34T T37G | 0.00165
ATCAAATAGTG A28G G34T | 0.0037
ATCAGGATTGA | 0.00379
ATCATGGAGTA | 0.00426
ATCATGGAGTG | 0.00597
ATCAATGAGTT A28G G34T T37G | 0.00246
ATCGATGGGTT G34A G35T T37G | 0.00178
ATAGATTGTGA | 0.00167

Variant | fraction ligated
ATCAATGGGTT G34A T37G | 0.001
ATCAGGTGTGA A29T | 0.00874
ATCGATGATGA | 0.00308
ATCAATATGTG A28G | 0.00686
ATCGGGATGTA A29T | 0.00281
ATAGGATGTGA | 0.00396
ATGAGATGTGA A29G | 0.00416
ATGAGATGTGA A29T | 0.00278
ATCATGGGTGA A28G | 0.00379
ATCGAGGAGTA G34T | 0.00121
ATCAAGGAGTG A28G | 0.00589
ATCGGGATTGA A29T | 0.00409
ATCATGTGTGA A28G | 0.00186
ATCAGATGTGA A28G A29T | 0.00278
ATCAGATGTGA A28G A29G | 0.00309
ATCGAGGATGA | 0.00383
ATCATGGAGTT A28G G34T T37G A40G | 0.00132
ATAGGGTGTGA A29T | 0.00231
ATCAATGGGTT A28G G34A T37G A40G | 0.000541
ATCAAATGGGT A28G G35T T37G A40T | 0.00169
ATCAAGGATGA A28G | 0.000468
ATCAATAGTGA | 0.00321
ATCAGATGTGA A28T A29G | 0.0131
ATCAAAGAGTA A28G | 0.0017

Variant | fraction ligated
ATCGTGGGTGA | 0.00142
ATCAAATGGTT A28G G34T T37G | 0.000947
ATCAAGATGTG A28G | 0.0128
ATCATGGAGTA G34T | 0.00594
ATCAATGGGTG G34T | 0.00622
ATCAATGGGTG G34A | 0.00542
ATCAAATTGTG A28G | 0.00512
ATCAATATTGA A28G | 0.00433
ATCGTGATTGA | 0.00326
ATCATGGTTGA A28G | 0.00132
ATCAAAGGTGA A28G | 0.00196
ATCAAATATGA A28G | 0.00291
ATCATGGATGA A28G | 0.00362
ATCAATGAGTA A28G | 0.00241
ATCGAGGGTGA | 0.00167
ATAGTGGAGTA G34T | 0.00645
ATCAATGAGTT G34T T37G | 0.00278
ATCAGGATGTA A29T | 0.00407
ATCGTGGAGTG G34T | 0.0139
ATCGGGAGTGA A29T | 0.00273
ATCAAATAGTG A28G | 0.00674
ATCAAGGTTGA | 0.00224
ATCAAATAGTA A28G G34T | 0.00133
ATCAAAGGGTT A28G G34A G35T T37G | 0.00185

Variant | fraction ligated
ATCAAGGTTGA A28G | 0.00202
ATCAATGGGTT G34A G35T T37G | 0.00168
ATCAAGGGTGA | 0.00247
ATCAAGAGTGA A28G | 0.00247
ATCAGGATTGA A29T | 0.00634
ATCAAGATTGA A28G | 0.00251
ATAGTGGTTGA | 0.0023
ATCGATGGGTT G34T T37G A40G | 0.00104
ATCATGGAGTA A28G | 0.00253
ATCAAAGGGTG A28G G34A | 0.00764
ATCAAAGGGTG A28G G34T | 0.00328
ATCAAGGAGTG | 0.00548
ATCAAGGAGTA | 0.00502
ATCGTGGAGTA G34T | 0.0058
ATAGGATGTGA A28T A29G | 0.0105
ATCGTGTGTGA | 0.00325
ATCGATGGGGT G34A G35T T37G A40T | 0.00147
ATAGTGGAGTA | 0.00346
ATAGTGGAGTG | 0.00518
ATCATATGTGA | 0.00281
ATCGGATGTGA A29G | 0.00359
ATCGGATGTGA A29T | 0.00285
ATCGATGGGTG | 0.00493
ATCGATGGGTA | 0.000742

Variant | fraction ligated
ATCAGGATGTA A28G A29T | 0.00157
ATCAATTGTGA | 0.00256
ATCAAAGGGTG A28G | 0.0051
ATAGTGTGTGA | 0.0025
ATCAGGATTGA A28G A29T | 0.00153
ATCAATGAGTG A28G | 0.00439
ATCAAAGGGTT A28G G34T T37G | 0.00171
ATCGGGATTGA | 0.00341
ATCATGATTGA | 0.00257
ATCAAATGTGA A28G | 0.00482
ATCGATGAGTT G34T T37G A40G | 0.00104
ATCGGGTGTGA | 0.00323
ATCAATGTGTA A28G | 0.00287
ATCAAATGGTT A28G T37G | 0.00127
ATCAAGGAGTA G34T | 0.00413
ATAGTGGAGTG G34T | 0.0109
ATCAAGTGTGA | 0.00229
ATCAAGGGTGA A28G | 0.00483
ATCGTGATGTA | 0.00285
ATCGTGATGTG | 0.0261
ATCAATGAGTT G34T T37G A40G | 0.00152
ATCAATGAGTG | 0.00492
ATCAATGAGTA | 0.00236
